For the data set, the target named is T1, Mutant OB chain (short chain, hinge-CH2-CH3 with T394D, P395D, P396D) [IgG part: P01857].
T1 chain: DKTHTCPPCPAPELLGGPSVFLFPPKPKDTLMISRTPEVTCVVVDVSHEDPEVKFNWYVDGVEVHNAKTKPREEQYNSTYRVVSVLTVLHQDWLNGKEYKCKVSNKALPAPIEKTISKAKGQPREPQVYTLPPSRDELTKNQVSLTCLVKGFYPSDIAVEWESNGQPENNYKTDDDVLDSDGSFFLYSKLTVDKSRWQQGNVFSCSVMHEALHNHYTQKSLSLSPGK
Put plainly: co-transfection of OA and OB in HEK293, protein A bead pull-down, SDS-PAGE (FIGS. 3, 4 and 6).

B1: Mutant OA chain (long chain, CH1-hinge-CH2-CH3 with P395K, P396K, V397K) (protein)
chain: ASTKGPSVFPLAPSSKSTSGGTAALGCLVKDYFPEPVTVSWNSGALTSGVHTFPAVLQSSGLYSLSSVVTVPSSSLGTQTYICNVNHKPSNTKVDKKVEPKSCDKTHTCPPCPAPELLGGPSVFLFPPKPKDTLMISRTPEVTCVVVDVSHEDPEVKFNWYVDGVEVHNAKTKPREEQYNSTYRVVSVLTVLHQDWLNGKEYKCKVSNKALPAPIEKTISKAKGQPREPQVYTLPPSRDELTKNQVSLTCLVKGFYPSDIAVEWESNGQPENNYKTTKKKLDSDGSFFLYSKLTVDKSRWQQGNVFSCSVMHEALHNHYTQKSLSLSPGK
As to B1, the yield of heterodimer entry is on record as “high yield of heterodimer (above 95%)”.
